Key:
[1] = molecular target: His-tagged RctB fragment C157 (Vibrio cholerae); test: AUC; sedimentation velocity, 50 000 rpm, 20°C; 0.3M NaCl, 0.025M Tris-HCl (pH 8.0), 0.0005M EDTA, 5% (v/v) glycerol; C137, C157 and C208 loaded at 3.6, 15 and 5.8 μM
[2] = molecular target: His-tagged RctB fragment C157 (Vibrio cholerae); test: SEC; Superdex 200 10/300 GL in RctB buffer; molar mass from peak position against protein standards
[3] = molecular target: His-tagged RctB fragment C208 (Vibrio cholerae); test: AUC; sedimentation velocity, 50 000 rpm, 20°C; 0.3M NaCl, 0.025M Tris-HCl (pH 8.0), 0.0005M EDTA, 5% (v/v) glycerol; C137, C157 and C208 loaded at 3.6, 15 and 5.8 μM
[4] = molecular target: His-tagged RctB fragment C208 (Vibrio cholerae); test: SEC; Superdex 200 10/300 GL in RctB buffer; molar mass from peak position against protein standards

Row | Substance | stoichiometry N [1] | stoichiometry N [2] | stoichiometry N [3] | stoichiometry N [4]
1 | His-tagged RctB fragment C157 (domain or fragment) | 2 | 2 | – | –
2 | His-tagged RctB fragment C208 (domain or fragment) | – | – | 2 | 2

— publication PMC4176361
